Data set [1] deals with T1, GST-APE1 WT (Xenopus laevis, UniProt Q6IP62 1-316).
T1 sequence: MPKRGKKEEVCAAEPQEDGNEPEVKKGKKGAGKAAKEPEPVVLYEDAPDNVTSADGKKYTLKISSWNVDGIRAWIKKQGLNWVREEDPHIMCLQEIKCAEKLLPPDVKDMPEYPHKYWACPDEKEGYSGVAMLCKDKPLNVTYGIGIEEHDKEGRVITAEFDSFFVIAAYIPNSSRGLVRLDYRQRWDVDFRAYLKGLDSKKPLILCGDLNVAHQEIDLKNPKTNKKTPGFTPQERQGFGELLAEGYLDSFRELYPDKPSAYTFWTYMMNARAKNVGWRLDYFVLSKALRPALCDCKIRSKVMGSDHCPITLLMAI
Nature of the data set: EMSA.

For another data set, the target named is T2, GST-APE1 F264Y (Xenopus laevis, UniProt Q6IP62 1-316, F264Y).
T2 sequence: T1 sequence with F264Y
Nature of the data set: EMSA.

In the next data set the target is T3, GST-APE1 CA (Xenopus laevis, UniProt Q6IP62 1-316, C92A;C98A).
T3 sequence: T1 sequence with C92A, C98A
Nature of the data set: EMSA.

For the next data set, the target named is T4, GST-APE1 DA (Xenopus laevis, UniProt Q6IP62 1-316, D306A).
T4 sequence: T1 sequence with D306A
In words: EMSA.

The next data set has as its target T5, GST-APE1 F264L (Xenopus laevis, UniProt Q6IP62 1-316, F264L).
T5 sequence: T1 sequence with F264L
In words: EMSA.

In the next data set the target is T6, Myc-APE2 (UniProt Q6DDT4 1-517).
T6 sequence: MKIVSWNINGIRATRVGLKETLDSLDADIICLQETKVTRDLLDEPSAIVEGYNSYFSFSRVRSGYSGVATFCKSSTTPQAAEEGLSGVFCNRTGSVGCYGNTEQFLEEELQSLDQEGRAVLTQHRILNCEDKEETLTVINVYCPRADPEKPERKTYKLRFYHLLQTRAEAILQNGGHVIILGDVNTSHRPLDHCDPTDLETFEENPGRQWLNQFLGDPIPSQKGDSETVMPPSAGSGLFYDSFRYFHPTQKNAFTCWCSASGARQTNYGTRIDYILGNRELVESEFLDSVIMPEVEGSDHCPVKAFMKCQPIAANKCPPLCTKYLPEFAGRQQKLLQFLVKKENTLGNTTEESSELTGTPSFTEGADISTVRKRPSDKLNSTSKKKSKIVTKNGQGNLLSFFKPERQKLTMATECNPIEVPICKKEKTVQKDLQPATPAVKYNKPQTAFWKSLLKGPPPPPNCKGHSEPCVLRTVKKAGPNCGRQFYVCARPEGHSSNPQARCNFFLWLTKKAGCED
In words: pull-down.

Data set [2] addresses T1, GST-APE1 WT. Nature of the data set: EMSA. The source holds these as a separate data set. (In general: Mobility shift assays separate free from complexed probe on a gel.)

Positions count from the first letter of the chain named. Read-outs that look alike come from different tables or passages of the source.

B1: dsDNA-SSB (dsDNA)
DNA 1: TCGGTACCCGGGGATCCTCTAGAGTCGACC
DNA 2: TGCAGGCATGCAAGCTTGGCGTAATCATGGTCATAGCTGT
DNA 3: ACAGCTATGACCATGATTACGCCAAGCTTGCATGCCTGCAGGTCGACTCTAGAGGATCCCCGGGTACCGA
modifications: nick between nt 30 and 31 of S1 (Nt.BstNBI, …^); CIP-treated
B1: the binding result is on record as “binds” with GST-APE1 WT [1]; “no binding” with GST-APE1 F264Y; “no binding” with GST-APE1 CA; “no binding” in the data set with GST-APE1 DA; “no binding” in the data set with GST-APE1 F264L.

B2: biotin-dsDNA-SSB (dsDNA)
DNA 1: B1 DNA 1
DNA 2: B1 DNA 2
DNA 3: B1 DNA 3
modifications: nick by Nt.BstNBI; CIP-treated
For B2, in the data set with Myc-APE2, the binding result is reported as “binds”.

B3: biotin-dsDNA (dsDNA)
DNA 1: TCGGTACCCGGGGATCCTCTAGAGTCGACCTGCAGGCATGCAAGCTTGGCGTAATCATGGTCATAGCTGT
DNA 2: B1 DNA 3
As to B3, the binding result in the data set with Myc-APE2 is given as “no binding”.

B4: dsDNA (70 bp) (dsDNA)
DNA 1: B3 DNA 1
DNA 2: B1 DNA 3
As to B4, the binding result with GST-APE1 WT [2] is “no binding”.

Values taken from paper PMC7038996.
